# B1: Refmab #3 (antibody, human IgG1, V domains shown)
# VH: QVQLVQSGAEVKKPGSSVKVSCKASGYTFTDYNMHWVRQAPGQGLEWIGYIYPYNGGTGYNQKFKSKATITADESTNTAYMELSSLRSEDTAVYYCARGRPAMDYWGQGTLVTVSS
# VL: DIQMTQSPSSLSASVGDRVTITCRASESVDNYGISFMNWFQQKPGKAPKLLIYAASNQGSGVPSRFSGSGSGTDFTLTISSLQPDDFATYYCQQSKEVPWTFGQGTKVEIK
# notes: Tested in IgG format; human IgG1 Fc silent (PG-LALA)
# B2: Refmab #2 (antibody, human IgG1, V domains shown)
# VH: QVQLVQSGAEVKKPGSSVKVSCKASGGTFSDYAISWVRQAPGQGLEWMGRIIPILGVADYAQKFQGRVTITADKSTRTAYMELSSLRSEDTAVYYCARNWADAFDIWGQGTMVTVSS
# VL: DIQLTQSPSSLSASVGDRVTITCRASQGISSVLAWYQQKPGKAPKLLIYDASSLESGVPSRFSGSGSGTDFTLTISSLQPEDFATYYCQQFDSSITFGQGTKLEIK
# notes: as for B1
# Target: human CD33 variant P48H (human, UniProt P20138 18-364)
# Sequence (P20138 18-364 P48H limits assumed): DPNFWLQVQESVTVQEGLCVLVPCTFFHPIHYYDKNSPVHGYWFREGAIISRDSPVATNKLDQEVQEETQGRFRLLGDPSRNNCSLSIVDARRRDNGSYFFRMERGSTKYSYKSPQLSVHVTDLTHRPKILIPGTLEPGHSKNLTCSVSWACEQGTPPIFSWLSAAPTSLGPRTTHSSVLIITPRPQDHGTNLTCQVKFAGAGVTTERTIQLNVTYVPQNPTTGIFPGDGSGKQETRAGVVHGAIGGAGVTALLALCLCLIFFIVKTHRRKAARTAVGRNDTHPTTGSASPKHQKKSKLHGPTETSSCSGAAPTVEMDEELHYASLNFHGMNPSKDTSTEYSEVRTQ
# Assay: flow cytometry, IgG on cells expressing the mutant
# Experimental: (§1) An alanine scan on human CD33 was performed to the determine the residues on CD33 that are involved in binding to the antibodies investigated. […] Briefly, a mutation library of CD33 was created by high-throughput, site-directed mutagenesis. Each residue was individually mutated to alanine, with alanine codons mutated to serine. The mutant library was arrayed in 384-well microplates and transiently transfected into HEK293-T. Following transfection, cells were incubated with the indicated antibodies (IgG or Fab) at concentrations pre-determined using an independent immunofluorescence titration curve on wild type CD33. […] Binding of each antibody to each mutant clone was determined in duplicates. For each point, background fluorescence was subtracted from the raw data, which were then normalized to antibody reactivity with wild type CD33.
# (§2) Antibodies were screened for binding to the human CD33 variants in IgG format. […] For each mutation, background fluorescence was subtracted from the raw data, which were then normalized to antibody reactivity with wild-type CD33.
row,Mean % WT Binding,Binder
1,87.6 % of WT,B1
2,81.9 % of WT,B2

# Target: human CD33 variant K52E (human, UniProt P20138 18-364)
# Sequence (P20138 18-364 K52E limits assumed): as the sequence (P20138 18-364 P48H limits assumed) above, with H31P, K35E counted along it
# Assay: flow cytometry, IgG on cells expressing the mutant
# Experimental: as §1, §2
row,Mean % WT Binding,Binder
1,106 % of WT,B1
2,52.4 % of WT,B2

# Target: human CD33 variant D51Y (human, UniProt P20138 18-364)
# Sequence (P20138 18-364 D51Y limits assumed): as the sequence (P20138 18-364 P48H limits assumed) above, with H31P, D34Y counted along it
# Assay: flow cytometry, IgG on cells expressing the mutant
# Experimental: as §1, §2
row,Mean % WT Binding,Binder
1,87.2 % of WT,B1
2,69.8 % of WT,B2

# Target: human CD33 variant Y127E (human, UniProt P20138 18-364)
# Sequence (P20138 18-364 Y127E limits assumed): as the sequence (P20138 18-364 P48H limits assumed) above, with H31P, Y110E counted along it
# Assay: flow cytometry, IgG on cells expressing the mutant
# Experimental: as §1, §2
row,Mean % WT Binding,Binder
1,21.5 % of WT,B1
2,105 % of WT,B2

# Target: human CD33 variant P48K (human, UniProt P20138 18-364)
# Sequence (P20138 18-364 P48K limits assumed): as the sequence (P20138 18-364 P48H limits assumed) above, with H31K counted along it
# Assay: flow cytometry, IgG on cells expressing the mutant
# Experimental: as §1, §2
row,Mean % WT Binding,Binder
1,67.3 % of WT,B1
2,106 % of WT,B2

# Target: human CD33 variant R122T (human, UniProt P20138 18-364)
# Sequence (P20138 18-364 R122T limits assumed): as the sequence (P20138 18-364 P48H limits assumed) above, with H31P, R105T counted along it
# Assay: flow cytometry, IgG on cells expressing the mutant
# Experimental: as §1, §2
row,Mean % WT Binding,Binder
1,103 % of WT,B1
2,1.5 % of WT,B2

# Target: human CD33 variant P48Q (human, UniProt P20138 18-364)
# Sequence (P20138 18-364 P48Q limits assumed): as the sequence (P20138 18-364 P48H limits assumed) above, with H31Q counted along it
# Assay: flow cytometry, IgG on cells expressing the mutant
# Experimental: as §1, §2
row,Mean % WT Binding,Binder
1,101 % of WT,B1
2,106 % of WT,B2

# Target: human CD33 variant P48M (human, UniProt P20138 18-364)
# Sequence (P20138 18-364 P48M limits assumed): as the sequence (P20138 18-364 P48H limits assumed) above, with H31M counted along it
# Assay: flow cytometry, IgG on cells expressing the mutant
# Experimental: as §1, §2
row,Mean % WT Binding,Binder
1,106 % of WT,B1
2,87.5 % of WT,B2

# Target: human CD33 variant P48W (human, UniProt P20138 18-364)
# Sequence (P20138 18-364 P48W limits assumed): as the sequence (P20138 18-364 P48H limits assumed) above, with H31W counted along it
# Assay: flow cytometry, IgG on cells expressing the mutant
# Experimental: as §1, §2
row,Mean % WT Binding,Binder
1,96.4 % of WT,B1
2,68.8 % of WT,B2

# Target: human CD33 variant Y50N (human, UniProt P20138 18-364)
# Sequence (P20138 18-364 Y50N limits assumed): as the sequence (P20138 18-364 P48H limits assumed) above, with H31P, Y33N counted along it
# Assay: flow cytometry, IgG on cells expressing the mutant
# Experimental: as §1, §2
row,Mean % WT Binding,Binder
1,92.4 % of WT,B1
2,108 % of WT,B2

# Target: human CD33 variant R122S (human, UniProt P20138 18-364)
# Sequence (P20138 18-364 R122S limits assumed): as the sequence (P20138 18-364 P48H limits assumed) above, with H31P, R105S counted along it
# Assay: flow cytometry, IgG on cells expressing the mutant
# Experimental: as §1, §2
row,Mean % WT Binding,Binder
1,111 % of WT,B1
2,3.4 % of WT,B2

# Target: human CD33 variant Y49L (human, UniProt P20138 18-364)
# Sequence (P20138 18-364 Y49L limits assumed): as the sequence (P20138 18-364 P48H limits assumed) above, with H31P, Y32L counted along it
# Assay: flow cytometry, IgG on cells expressing the mutant
# Experimental: as §1, §2
row,Mean % WT Binding,Binder
1,93.8 % of WT,B1
2,108 % of WT,B2

# Target: human CD33 variant K52T (human, UniProt P20138 18-364)
# Sequence (P20138 18-364 K52T limits assumed): as the sequence (P20138 18-364 P48H limits assumed) above, with H31P, K35T counted along it
# Assay: flow cytometry, IgG on cells expressing the mutant
# Experimental: as §1, §2
row,Mean % WT Binding,Binder
1,103 % of WT,B1
2,120 % of WT,B2

# Target: human CD33 variant I47E (human, UniProt P20138 18-364)
# Sequence (P20138 18-364 I47E limits assumed): as the sequence (P20138 18-364 P48H limits assumed) above, with I30E, H31P counted along it
# Assay: flow cytometry, IgG on cells expressing the mutant
# Experimental: as §1, §2
row,Mean % WT Binding,Binder
1,109 % of WT,B1
2,0.5 % of WT,B2

# Target: human CD33 variant Y50I (human, UniProt P20138 18-364)
# Sequence (P20138 18-364 Y50I limits assumed): as the sequence (P20138 18-364 P48H limits assumed) above, with H31P, Y33I counted along it
# Assay: flow cytometry, IgG on cells expressing the mutant
# Experimental: as §1, §2
row,Mean % WT Binding,Binder
1,92.8 % of WT,B1
2,126 % of WT,B2

# Target: human CD33 variant Y50S (human, UniProt P20138 18-364)
# Sequence (P20138 18-364 Y50S limits assumed): as the sequence (P20138 18-364 P48H limits assumed) above, with H31P, Y33S counted along it
# Assay: flow cytometry, IgG on cells expressing the mutant
# Experimental: as §1, §2
row,Mean % WT Binding,Binder
1,97.2 % of WT,B1
2,123 % of WT,B2

# Target: human CD33 variant Y50P (human, UniProt P20138 18-364)
# Sequence (P20138 18-364 Y50P limits assumed): as the sequence (P20138 18-364 P48H limits assumed) above, with H31P, Y33P counted along it
# Assay: flow cytometry, IgG on cells expressing the mutant
# Experimental: as §1, §2
row,Mean % WT Binding,Binder
1,103 % of WT,B1
2,95.8 % of WT,B2

# Target: human CD33 variant K52D (human, UniProt P20138 18-364)
# Sequence (P20138 18-364 K52D limits assumed): as the sequence (P20138 18-364 P48H limits assumed) above, with H31P, K35D counted along it
# Assay: flow cytometry, IgG on cells expressing the mutant
# Experimental: as §1, §2
row,Mean % WT Binding,Binder
1,101 % of WT,B1
2,5.3 % of WT,B2

# Target: human CD33 variant Y49H (human, UniProt P20138 18-364)
# Sequence (P20138 18-364 Y49H limits assumed): as the sequence (P20138 18-364 P48H limits assumed) above, with H31P, Y32H counted along it
# Assay: flow cytometry, IgG on cells expressing the mutant
# Experimental: as §1, §2
row,Mean % WT Binding,Binder
1,92.1 % of WT,B1
2,17.2 % of WT,B2

# Target: human CD33 variant I47F (human, UniProt P20138 18-364)
# Sequence (P20138 18-364 I47F limits assumed): as the sequence (P20138 18-364 P48H limits assumed) above, with I30F, H31P counted along it
# Assay: flow cytometry, IgG on cells expressing the mutant
# Experimental: as §1, §2
row,Mean % WT Binding,Binder
1,102 % of WT,B1
2,2.2 % of WT,B2

# Target: human CD33 variant R122F (human, UniProt P20138 18-364)
# Sequence (P20138 18-364 R122F limits assumed): as the sequence (P20138 18-364 P48H limits assumed) above, with H31P, R105F counted along it
# Assay: flow cytometry, IgG on cells expressing the mutant
# Experimental: as §1, §2
row,Mean % WT Binding,Binder
1,106 % of WT,B1
2,1.2 % of WT,B2

# Target: human CD33 variant Y50H (human, UniProt P20138 18-364)
# Sequence (P20138 18-364 Y50H limits assumed): as the sequence (P20138 18-364 P48H limits assumed) above, with H31P, Y33H counted along it
# Assay: flow cytometry, IgG on cells expressing the mutant
# Experimental: as §1, §2
row,Mean % WT Binding,Binder
1,111 % of WT,B1
2,119 % of WT,B2

# Target: human CD33 variant Y127R (human, UniProt P20138 18-364)
# Sequence (P20138 18-364 Y127R limits assumed): as the sequence (P20138 18-364 P48H limits assumed) above, with H31P, Y110R counted along it
# Assay: flow cytometry, IgG on cells expressing the mutant
# Experimental: as §1, §2
row,Mean % WT Binding,Binder
1,65.9 % of WT,B1
2,110 % of WT,B2

# Target: human CD33 variant K52L (human, UniProt P20138 18-364)
# Sequence (P20138 18-364 K52L limits assumed): as the sequence (P20138 18-364 P48H limits assumed) above, with H31P, K35L counted along it
# Assay: flow cytometry, IgG on cells expressing the mutant
# Experimental: as §1, §2
row,Mean % WT Binding,Binder
1,94.9 % of WT,B1
2,74.8 % of WT,B2

# Target: human CD33 variant D51N (human, UniProt P20138 18-364)
# Sequence (P20138 18-364 D51N limits assumed): as the sequence (P20138 18-364 P48H limits assumed) above, with H31P, D34N counted along it
# Assay: flow cytometry, IgG on cells expressing the mutant
# Experimental: as §1, §2
row,Mean % WT Binding,Binder
1,107 % of WT,B1
2,96.7 % of WT,B2

# Target: human CD33 variant Y50D (human, UniProt P20138 18-364)
# Sequence (P20138 18-364 Y50D limits assumed): as the sequence (P20138 18-364 P48H limits assumed) above, with H31P, Y33D counted along it
# Assay: flow cytometry, IgG on cells expressing the mutant
# Experimental: as §1, §2
row,Mean % WT Binding,Binder
1,100 % of WT,B1
2,112 % of WT,B2

# Target: human CD33 variant Y49P (human, UniProt P20138 18-364)
# Sequence (P20138 18-364 Y49P limits assumed): as the sequence (P20138 18-364 P48H limits assumed) above, with H31P, Y32P counted along it
# Assay: flow cytometry, IgG on cells expressing the mutant
# Experimental: as §1, §2
row,Mean % WT Binding,Binder
1,92.1 % of WT,B1
2,6.9 % of WT,B2

# Target: human CD33 variant K52H (human, UniProt P20138 18-364)
# Sequence (P20138 18-364 K52H limits assumed): as the sequence (P20138 18-364 P48H limits assumed) above, with H31P, K35H counted along it
# Assay: flow cytometry, IgG on cells expressing the mutant
# Experimental: as §1, §2
row,Mean % WT Binding,Binder
1,101 % of WT,B1
2,84.7 % of WT,B2

# Target: human CD33 variant Y50Q (human, UniProt P20138 18-364)
# Sequence (P20138 18-364 Y50Q limits assumed): as the sequence (P20138 18-364 P48H limits assumed) above, with H31P, Y33Q counted along it
# Assay: flow cytometry, IgG on cells expressing the mutant
# Experimental: as §1, §2
row,Mean % WT Binding,Binder
1,95.4 % of WT,B1
2,113 % of WT,B2

# Target: human CD33 variant R122I (human, UniProt P20138 18-364)
# Sequence (P20138 18-364 R122I limits assumed): as the sequence (P20138 18-364 P48H limits assumed) above, with H31P, R105I counted along it
# Assay: flow cytometry, IgG on cells expressing the mutant
# Experimental: as §1, §2
row,Mean % WT Binding,Binder
1,112 % of WT,B1
2,1.1 % of WT,B2

# Target: human CD33 variant P48S (human, UniProt P20138 18-364)
# Sequence (P20138 18-364 P48S limits assumed): as the sequence (P20138 18-364 P48H limits assumed) above, with H31S counted along it
# Assay: flow cytometry, IgG on cells expressing the mutant
# Experimental: as §1, §2
row,Mean % WT Binding,Binder
1,100 % of WT,B1
2,92.1 % of WT,B2

# Target: human CD33 variant K52I (human, UniProt P20138 18-364)
# Sequence (P20138 18-364 K52I limits assumed): as the sequence (P20138 18-364 P48H limits assumed) above, with H31P, K35I counted along it
# Assay: flow cytometry, IgG on cells expressing the mutant
# Experimental: as §1, §2
row,Mean % WT Binding,Binder
1,88.7 % of WT,B1
2,86.8 % of WT,B2

# Target: human CD33 variant R122G (human, UniProt P20138 18-364)
# Sequence (P20138 18-364 R122G limits assumed): as the sequence (P20138 18-364 P48H limits assumed) above, with H31P, R105G counted along it
# Assay: flow cytometry, IgG on cells expressing the mutant
# Experimental: as §1, §2
row,Mean % WT Binding,Binder
1,114 % of WT,B1
2,12.2 % of WT,B2

# Target: human CD33 variant K52F (human, UniProt P20138 18-364)
# Sequence (P20138 18-364 K52F limits assumed): as the sequence (P20138 18-364 P48H limits assumed) above, with H31P, K35F counted along it
# Assay: flow cytometry, IgG on cells expressing the mutant
# Experimental: as §1, §2
row,Mean % WT Binding,Binder
1,6 % of WT,B1
2,3.9 % of WT,B2

# Target: human CD33 variant Y49V (human, UniProt P20138 18-364)
# Sequence (P20138 18-364 Y49V limits assumed): as the sequence (P20138 18-364 P48H limits assumed) above, with H31P, Y32V counted along it
# Assay: flow cytometry, IgG on cells expressing the mutant
# Experimental: as §1, §2
row,Mean % WT Binding,Binder
1,106 % of WT,B1
2,90.4 % of WT,B2

# Target: human CD33 variant P48N (human, UniProt P20138 18-364)
# Sequence (P20138 18-364 P48N limits assumed): as the sequence (P20138 18-364 P48H limits assumed) above, with H31N counted along it
# Assay: flow cytometry, IgG on cells expressing the mutant
# Experimental: as §1, §2
row,Mean % WT Binding,Binder
1,98.8 % of WT,B1
2,95.2 % of WT,B2

# From patent publication US20260242735A1 (UNIVERSIT T BASEL, published 2026)
